Experimental data as given in paper PMC10810954, “Structural and functional insights into the lipid regulation of human anion exchanger 2” (Nature Communications, 2024).
Changes are numbered by the printed parent chain. Names and notes keep the numbering of the source.

B1: Full-length canonical human AE2 (isoform 1), wild type (natural protein, UniProt P04920-1 1-1241, looked up)
chain: MSSAPRRPAKGADSFCTPEPESLGPGTPGFPEQEEDELHRTLGVERFEEILQEAGSRGGEEPGRSYGEEDFEYHRQSSHHIHHPLSTHLPPDARRRKTPQGPGRKPRRRPGASPTGETPTIEEGEEDEDEASEAEGARALTQPSPVSTPSSVQFFLQEDDSADRKAERTSPSSPAPLPHQEATPRASKGAQAGTQVEEAEAEAVAVASGTAGGDDGGASGRPLPKAQPGHRSYNLQERRRIGSMTGAEQALLPRVPTDEIEAQTLATADLDLMKSHRFEDVPGVRRHLVRKNAKGSTQSGREGREPGPTPRARPRAPHKPHEVFVELNELLLDKNQEPQWRETARWIKFEEDVEEETERWGKPHVASLSFRSLLELRRTLAHGAVLLDLDQQTLPGVAHQVVEQMVISDQIKAEDRANVLRALLLKHSHPSDEKDFSFPRNISAGSLGSLLGHHHGQGAESDPHVTEPLMGGVPETRLEVERERELPPPAPPAGITRSKSKHELKLLEKIPENAEATVVLVGCVEFLSRPTMAFVRLREAVELDAVLEVPVPVRFLFLLLGPSSANMDYHEIGRSISTLMSDKQFHEAAYLADEREDLLTAINAFLDCSVVLPPSEVQGEELLRSVAHFQRQMLKKREEQGRLLPTGAGLEPKSAQDKALLQMVEAAGAAEDDPLRRTGRPFGGLIRDVRRRYPHYLSDFRDALDPQCLAAVIFIYFAALSPAITFGGLLGEKTQDLIGVSELIMSTALQGVVFCLLGAQPLLVIGFSGPLLVFEEAFFSFCSSNHLEYLVGRVWIGFWLVFLALLMVALEGSFLVRFVSRFTQEIFAFLISLIFIYETFYKLVKIFQEHPLHGCSASNSSEVDGGENMTWAGARPTLGPGNRSLAGQSGQGKPRGQPNTALLSLVLMAGTFFIAFFLRKFKNSRFFPGRIRRVIGDFGVPIAILIMVLVDYSIEDTYTQKLSVPSGFSVTAPEKRGWVINPLGEKSPFPVWMMVASLLPAILVFILIFMETQITTLIISKKERMLQKGSGFHLDLLLIVAMGGICALFGLPWLAAATVRSVTHANALTVMSKAVAPGDKPKIQEVKEQRVTGLLVALLVGLSIVIGDLLRQIPLAVLFGIFLYMGVTSLNGIQFYERLHLLLMPPKHHPDVTYVKKVRTLRMHLFTALQLLCLALLWAVMSTAASLAFPFILILTVPLRMVVLTRIFTDREMKCLDANEAEPVFDEREGVDEYNEMPMPV
notes: Anion exchanger 2 (AE2, SLC4A2), human, isoform a, UniProtKB P04920-1, full length; Full-length protein was purified, but only the TMDs are resolved in the map; the NTD, parts of EL3, EL4, EL6 and the C-terminus are not modelled; also called Anion exchanger 2; hAE2; source: HEK293F (FreeStyle 293 F) cells, BacMam system, purified (LMNG/CHS extraction, Ni-NTA, TEV, Superose 6 in GDN); not shown: …
B2: Full-length human AE2 with R932A/K1147A/H1148A mutations (natural protein, UniProt P04920-1 1-1241, looked up)
chain: B1 chain with R932A, K1147A, H1148A
notes: No PIP2 in the map; NTD resolved; also called AE2_(IF/REST); mutant AE2; not shown: GFP, C-terminal, cleaved; His tag, C-terminal, cleaved

Molecular target: the molecule itself
Assay: cryo-EM structure; purified AE2 in 50 μM GDN, 150 mM NaCl, 20 mM HEPES pH 7.4; Titan Krios 300 kV; homodimer

Row | Protein | stoichiometry N
1 | B1 | 2
2 | B2 | 2
